Measurements taken from patent US20140086935A1 (Bayer, published 2014).
Read-outs that look alike come from different tables or passages of the source.

How the values were obtained:
rat TIMP-1 [1] = target: T1, rat TIMP-1 (rat, UniProt P30120 24-217); assay: cell-based or functional assay
rat TIMP-1 [2] = target: T1, rat TIMP-1; assay: cell-based or functional assay; remark: listed apart in the source
rat TIMP-1 [3] = target: T1, rat TIMP-1; assay: SPR (BIAcore), TIMP-1 coupled to chip, monovalent Fab
Experimental: (§1) For affinity determination, monomeric fractions of affinity and SEC purified Fab fragments or purified IgG1 molecules were used. All experiments were conducted in HBS buffer at a flow rate of 20 μl/min at 25° C. on a BIAcore™ instrument. Antigens in 100 mM sodium acetate pH 5.0 were coupled to a CM 5 sensor chip using standard EDC-NHS coupling chemistry. […] All sensograms were fitted globally using BIA evaluation software. For monovalent Fab fragments a monovalent fit (Langmuir binding) and for IgGs a bivalent fit was applied.

rat TIMP-1 [4] = target: T1, rat TIMP-1; assay: as above; remark: listed apart in the source
Experimental: as §1

human TIMP-1 [5] = target: T2, human TIMP-1 (human, UniProt P01033 24-207); assay: cell-based or functional assay
human TIMP-1 [6] = target: T2, human TIMP-1; assay: SPR (BIAcore), TIMP-1 coupled to chip, monovalent Fab
Experimental: as §1

human TIMP-1 [7] = target: T2, human TIMP-1; assay: cell-based or functional assay; remark: listed apart in the source
human TIMP-1 [8] = target: T2, human TIMP-1; assay: SPR (BIAcore), TIMP-1 coupled to chip, monovalent Fab; remark: listed apart in the source
Experimental: as §1

T1 sequence (P30120 24-217 limits assumed): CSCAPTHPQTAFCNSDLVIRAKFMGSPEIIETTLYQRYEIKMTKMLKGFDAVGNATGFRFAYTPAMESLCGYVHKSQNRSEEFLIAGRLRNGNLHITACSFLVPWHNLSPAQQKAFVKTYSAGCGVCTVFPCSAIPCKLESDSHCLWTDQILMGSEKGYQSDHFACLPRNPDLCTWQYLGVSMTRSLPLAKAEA

Binder | IC50 in rat protease assay (rat TIMP-1 [2]) | Kd (rat TIMP-1 [3]) | also measured
MS-BW-17 (Fab, V domains shown, Fab, FLAG + Strep-tag II; not tied by name) VH: QVQLVQSGAEVKKPGESLKISCKGSGYSFTSYWIGWVRQMPGKGLEWMGIIYPGDSDTRYSPSFQGQVTISADKSISTAYLQWSSLKASDTAMYYCARLTNYFDSIYYDHWGQGTLVTVSS VL: DIALTQPASVSGSPGQSITISCTGTSSDVGGYNYVSWYQQHPGKAPKLMIYDVSNRPSGVSNRFSGSKSGNTASLTISGLQAEDEADYYCQSYDPSHPSKVFGGGTKLTVLG | 11 nM | 13 nM | IC50 in rat protease assay (rat TIMP-1 [1]): 11 nM; Kd (rat TIMP-1 [4]): 13 nM
MS-BW-17-3 (Fab, V domains shown, Fab from LCDR3 optimization of MS-BW-17) VH: QVQLVQSGAEVKKPGESLKISCKGSGYSFTSYWIGWVRQMPGKGLEWMGIIYPGDSDTRYSPSFQGQVTISADKSISTAYLQWSSLKASDTAMYYCARLTNYFDSIYYDHWGQGTLVTVSS VL: DIALTQPASVSGSPGQSITISCTGTSSDVGGYNYVSWYQQHPGKAPKLMIYDVSNRPSGVSNRFSGSKSGNTASLTISGLQAEDEADYYCQSFTVSPGADVFGGGTKLTVLG | 3 nM | 1.9 nM | –
MS-BW-17-2 (Fab, V domains shown, Fab from LCDR3 optimization of MS-BW-17) VH: QVQLVQSGAEVKKPGESLKISCKGSGYSFTSYWIGWVRQMPGKGLEWMGIIYPGDSDTRYSPSFQGQVTISADKSISTAYLQWSSLKASDTAMYYCARLTNYFDSIYYDHWGQGTLVTVSS VL: DIALTQPASVSGSPGQSITISCTGTSSDVGGYNYVSWYQQHPGKAPKLMIYDVSNRPSGVSNRFSGSKSGNTASLTISGLQAEDEADYYCQAFAVMPNVEVFGGGTKLTVLG | 1.1 nM | 1.3 nM | –
MS-BW-44-2-15 (Fab, V domains shown, Fab) VH: QVQLVESGGGLVQPGGSLRLSCAASGFTFSSYAMSWVRQAPGKGLEWVSGISGNGVLIFYADSVKGRFTISRDNSKNTLYLQMNSLRAEDTAVYYCARWFDHWGQGTLVTVSS VL: DIALTQPASVSGSPGQSITISCTGTSSDVGGYNYVSWYQQHPGKAPKLMIYDVSNRPSGVSNRFSGSKSGNTASLTISGLQAEDEADYYCQSYDFVRFMVFGGGTKLTVLG | – | – | IC50 in human protease assay (modified, decreased TIMP-1 and MMP-1) (human TIMP-1 [5]): 0.2 nM; Kd (human TIMP-1 [6]): 0.3 nM
MS-BW-54 (Fab, V domains shown, Fab, FLAG + Strep-tag II; not tied by name) VH: QVQLVQSGAEVKKPGESLKISCKGSGYSFTSYWIGWVRQMPGKGLEWMGIIYPGDSDTRYSPSFQGQVTISADKSISTAYLQWSSLKASDTAMYYCARYYGFEYDLLFDNWGQGTLVTVSS VL: DIALTQPASVSGSPGQSITISCTGTSSDVGGYNYVSWYQQHPGKAPKLMIYDVSNRPSGVSNRFSGSKSGNTASLTISGLQAEDEADYYCQSYDISGYPVFGGGTKLTVLG | 7 nM | 9 nM | IC50 in rat protease assay (rat TIMP-1 [1]): 7 nM; Kd (rat TIMP-1 [4]): 9 nM
MS-BW-52 (Fab, V domains shown, Fab: heavy chain of MS-BW-28 with light chain of MS-BW-26; not tied by name) VH: not shown VL: DIALTQPASVSGSPGQSITISCTGTSSDVGGYNYVSWYQQHPGKAPKLMIYDVSNRPSGVSNRFSGSKSGNTASLTISGLQAEDEADYYCQSYDFVRFMVFGGGTKLTVLG | – | – | IC50 in human protease assay (human TIMP-1 [7]): 9 nM; Kd (human TIMP-1 [8]): ~11 nM
MS-BW-51 (Fab, V domains shown, Fab: heavy chain of MS-BW-28 with light chain of MS-BW-25; not tied by name) VH: not shown VL: DIALTQPASVSGSPGQSITISCTGTSSDVGGYNYVSWYQQHPGKAPKLMIYDVSNRPSGVSNRFSGSKSGNTASLTISGLQAEDEADYYCQSYDFINVIVFGGGTKLTVLG | – | – | IC50 in human protease assay (human TIMP-1 [7]): 7 nM; Kd (human TIMP-1 [8]): ~7 nM
MS-BW-54-1 (Fab, V domains shown, Fab from LCDR1, -2, -3 optimization of MS-BW-54) VH: QVQLVQSGAEVKKPGESLKISCKGSGYSFTSYWIGWVRQMPGKGLEWMGIIYPGDSDTRYSPSFQGQVTISADKSISTAYLQWSSLKASDTAMYYCARYYGFEYDLLFDNWGQGTLVTVSS VL: DIALTQPASVSGSPGQSITISCTGTSSDLGGYNYVSWYQQHPGKAPKLMIYAGNNRPSGVSNRFSGSKSGNTASLTISGLQAEDEADYYCQAYDSSGYPVFGGGTKLTVLG | 3 nM | 2 nM | –
